What was measured:
Assay in all cases: capture ELISA on coated 1.14.4; relative to silent alanine substitutions
[1] = molecular target: T1, hPD-L1_ECD.His point mutant Y118A (human, UniProt Q9NZQ7 19-238)
T1 construct: extracellular domain
Method in brief: (§1)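 Capture ELISA in which supernatant containing quantified PD-L1 alanine mutant was detected with HRP anti-His antibody. Absorbance was normalized to the average of control mutants. Epitope residues were called at binding fold change <0.55.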

[2] = molecular target: T2, hPD-L1_ECD.His point mutant Q83A (human, UniProt Q9NZQ7 19-238)
T2 construct: extracellular domain
T2 sequence (Q9NZQ7 19-238 Q83A): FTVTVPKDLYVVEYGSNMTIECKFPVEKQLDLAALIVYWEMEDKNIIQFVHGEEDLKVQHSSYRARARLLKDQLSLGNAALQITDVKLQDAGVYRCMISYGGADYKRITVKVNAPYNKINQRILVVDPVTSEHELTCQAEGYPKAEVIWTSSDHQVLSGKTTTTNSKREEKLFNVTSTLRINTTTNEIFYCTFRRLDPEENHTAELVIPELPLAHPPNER
Method in brief: as §1

[3] = molecular target: T3, hPD-L1_ECD.His point mutant E39A (human, UniProt Q9NZQ7 19-238)
T3 construct: extracellular domain
T3 sequence (Q9NZQ7 19-238 E39A): as the sequence (Q9NZQ7 19-238 Q83A) above, with E21A, A65Q counted along it
Method in brief: as §1

[4] = molecular target: T4, hPD-L1_ECD.His point mutant N35A (human, UniProt Q9NZQ7 19-238)
T4 construct: extracellular domain
T4 sequence (Q9NZQ7 19-238 N35A): as the sequence (Q9NZQ7 19-238 Q83A) above, with N17A, A65Q counted along it
Method in brief: as §1

[5] = molecular target: T5, hPD-L1_ECD.His point mutant M115A (human, UniProt Q9NZQ7 19-238)
T5 construct: extracellular domain
T5 sequence (Q9NZQ7 19-238 M115A): as the sequence (Q9NZQ7 19-238 Q83A) above, with A65Q, M97A counted along it
Method in brief: as §1

[6] = molecular target: T6, hPD-L1_ECD.His point mutant Y28A (human, UniProt Q9NZQ7 19-238)
T6 construct: extracellular domain
T6 sequence (Q9NZQ7 19-238 Y28A): as the sequence (Q9NZQ7 19-238 Q83A) above, with Y10A, A65Q counted along it
Method in brief: as §1

[7] = molecular target: T7, hPD-L1_ECD.His point mutant G119A (human, UniProt Q9NZQ7 19-238)
T7 construct: extracellular domain
T7 sequence (Q9NZQ7 19-238 G119A): as the sequence (Q9NZQ7 19-238 Q83A) above, with A65Q, G101A counted along it
Method in brief: as §1

[8] = molecular target: T8, hPD-L1_ECD.His point mutant V147A (human, UniProt Q9NZQ7 19-238)
T8 construct: extracellular domain
T8 sequence (Q9NZQ7 19-238 V147A): as the sequence (Q9NZQ7 19-238 Q83A) above, with A65Q, V129A counted along it
Method in brief: as §1

[9] = molecular target: T9, hPD-L1_ECD.His point mutant Y32A (human, UniProt Q9NZQ7 19-238)
T9 construct: extracellular domain
T9 sequence (Q9NZQ7 19-238 Y32A): as the sequence (Q9NZQ7 19-238 Q83A) above, with Y14A, A65Q counted along it
Method in brief: as §1

[10] = molecular target: T10, hPD-L1_ECD.His point mutant L94A (human, UniProt Q9NZQ7 19-238)
T10 construct: extracellular domain
T10 sequence (Q9NZQ7 19-238 L94A): as the sequence (Q9NZQ7 19-238 Q83A) above, with A65Q, L76A counted along it
Method in brief: as §1

[11] = molecular target: T11, hPD-L1_ECD.His point mutant F191A (human, UniProt Q9NZQ7 19-238)
T11 construct: extracellular domain
T11 sequence (Q9NZQ7 19-238 F191A): as the sequence (Q9NZQ7 19-238 Q83A) above, with A65Q, F173A counted along it
Method in brief: as §1

[12] = molecular target: T12, hPD-L1_ECD.His point mutant K41A (human, UniProt Q9NZQ7 19-238)
T12 construct: extracellular domain
T12 sequence (Q9NZQ7 19-238 K41A): as the sequence (Q9NZQ7 19-238 Q83A) above, with K23A, A65Q counted along it
Method in brief: as §1

[13] = molecular target: T13, hPD-L1_ECD.His point mutant A51G (human, UniProt Q9NZQ7 19-238)
T13 construct: extracellular domain
T13 sequence (Q9NZQ7 19-238 A51G): as the sequence (Q9NZQ7 19-238 Q83A) above, with A33G, A65Q counted along it
Method in brief: as §1

[14] = molecular target: T14, hPD-L1_ECD.His point mutant Q47A (human, UniProt Q9NZQ7 19-238)
T14 construct: extracellular domain
T14 sequence (Q9NZQ7 19-238 Q47A): as the sequence (Q9NZQ7 19-238 Q83A) above, with Q29A, A65Q counted along it
Method in brief: as §1

[15] = molecular target: T15, hPD-L1_ECD.His point mutant N63A (human, UniProt Q9NZQ7 19-238)
T15 construct: extracellular domain
T15 sequence (Q9NZQ7 19-238 N63A): as the sequence (Q9NZQ7 19-238 Q83A) above, with N45A, A65Q counted along it
Method in brief: as §1

[16] = molecular target: T16, hPD-L1_ECD.His point mutant Q107A (human, UniProt Q9NZQ7 19-238)
T16 construct: extracellular domain
T16 sequence (Q9NZQ7 19-238 Q107A): as the sequence (Q9NZQ7 19-238 Q83A) above, with A65Q, Q89A counted along it
Method in brief: as §1

[17] = molecular target: T17, hPD-L1_ECD.His point mutant V174A (human, UniProt Q9NZQ7 19-238)
T17 construct: extracellular domain
T17 sequence (Q9NZQ7 19-238 V174A): as the sequence (Q9NZQ7 19-238 Q83A) above, with A65Q, V156A counted along it
Method in brief: as §1

[18] = molecular target: T18, hPD-L1_ECD.His point mutant R125A (human, UniProt Q9NZQ7 19-238)
T18 construct: extracellular domain
T18 sequence (Q9NZQ7 19-238 R125A): as the sequence (Q9NZQ7 19-238 Q83A) above, with A65Q, R107A counted along it
Method in brief: as §1

[19] = molecular target: T19, hPD-L1_ECD.His point mutant Q66A (human, UniProt Q9NZQ7 19-238)
T19 construct: extracellular domain
T19 sequence (Q9NZQ7 19-238 Q66A): as the sequence (Q9NZQ7 19-238 Q83A) above, with Q48A, A65Q counted along it
Method in brief: as §1

[20] = molecular target: T20, hPD-L1_ECD.His point mutant K46A (human, UniProt Q9NZQ7 19-238)
T20 construct: extracellular domain
T20 sequence (Q9NZQ7 19-238 K46A): as the sequence (Q9NZQ7 19-238 Q83A) above, with K28A, A65Q counted along it
Method in brief: as §1

[21] = molecular target: T21, hPD-L1_ECD.His point mutant V111A (human, UniProt Q9NZQ7 19-238)
T21 construct: extracellular domain
T21 sequence (Q9NZQ7 19-238 V111A): as the sequence (Q9NZQ7 19-238 Q83A) above, with A65Q, V93A counted along it
Method in brief: as §1

[22] = molecular target: T22, hPD-L1_ECD.His point mutant K105A (human, UniProt Q9NZQ7 19-238)
T22 construct: extracellular domain
T22 sequence (Q9NZQ7 19-238 K105A): as the sequence (Q9NZQ7 19-238 Q83A) above, with A65Q, K87A counted along it
Method in brief: as §1

[23] = molecular target: T23, hPD-L1_ECD.His point mutant T127A (human, UniProt Q9NZQ7 19-238)
T23 construct: extracellular domain
T23 sequence (Q9NZQ7 19-238 T127A): as the sequence (Q9NZQ7 19-238 Q83A) above, with A65Q, T109A counted along it
Method in brief: as §1

[24] = molecular target: T24, hPD-L1_ECD.His point mutant L231A (human, UniProt Q9NZQ7 19-238)
T24 construct: extracellular domain
T24 sequence (Q9NZQ7 19-238 L231A): as the sequence (Q9NZQ7 19-238 Q83A) above, with A65Q, L213A counted along it
Method in brief: as §1

[25] = molecular target: T25, hPD-L1_ECD.His point mutant E218A (human, UniProt Q9NZQ7 19-238)
T25 construct: extracellular domain
T25 sequence (Q9NZQ7 19-238 E218A): as the sequence (Q9NZQ7 19-238 Q83A) above, with A65Q, E200A counted along it
Method in brief: as §1

[26] = molecular target: T26, hPD-L1_ECD.His point mutant Y123A (human, UniProt Q9NZQ7 19-238)
T26 construct: extracellular domain
T26 sequence (Q9NZQ7 19-238 Y123A): as the sequence (Q9NZQ7 19-238 Q83A) above, with A65Q, Y105A counted along it
Method in brief: as §1

T1 sequence (Q9NZQ7 19-238 Y118A): as the sequence (Q9NZQ7 19-238 Q83A) above, with A65Q, Y100A counted along it

B1: 1.14.4 (antibody, V domains shown)
VH: EVQLLESGGGLVQPGGSLRLSCAASGFTFSSYAMSWVRQAPGKGLEWVSGISGSGGFTYYADSVKGRFTISRDNSKNTLYLQMNSLRAEDTAVYYCAKPPRGYNYGPFDYWGQGTLVTVSS
VL: SYVLTQPPSVSVAPGQTARITCGGNNIGSKSVHWYQQKPGQAPVLVVYDDSDRPSGIPERFSGSNSGNTATLTISRVEAGDEADYYCQVWDSSSDHVVFGGGTKLTVL
notes: Fully human monoclonal antibody with a human constant region of IgG4 isotype
B1 was tested. Which fold change [1] did it give?
The fold change was 0.701 fold.

And the fold change [2]?
The fold change was 0.982 fold.

And the fold change [3]?
Its fold change is 0.831 fold.

And the fold change [4]?
The fold change was 0.788 fold.

What about the fold change [5] of the same binder?
Its fold change is 1.02 fold.

What about the fold change [6] of the same binder?
The fold change was 0.842 fold.

What about the fold change [7] of the same binder?
The fold change was 0.825 fold.

And the fold change [8]?
Its fold change is 1.02 fold.

What about the fold change [9] of the same binder?
Its fold change is 0.935 fold.

What about the fold change [10] of the same binder?
The fold change was 1.19 fold.

What about the fold change [11] of the same binder?
Its fold change is 0.897 fold.

What about the fold change [12] of the same binder?
Its fold change is 1.07 fold.

And the fold change [13]?
The fold change was 1.03 fold.

And the fold change [14]?
The fold change was 1.05 fold.

And the fold change [15]?
The fold change was 0.285 fold.

What about the fold change [16] of the same binder?
The fold change was 0.792 fold.

And the fold change [17]?
Its fold change is 0.983 fold.

What about the fold change [18] of the same binder?
Its fold change is 0.959 fold.

What about the fold change [19] of the same binder?
The fold change was 0.979 fold.

And the fold change [20]?
The fold change was 1.08 fold.

What about the fold change [21] of the same binder?
Its fold change is 0.723 fold.

And the fold change [22]?
Its fold change is 0.816 fold.

What about the fold change [23] of the same binder?
Its fold change is 0.735 fold.

What about the fold change [24] of the same binder?
The fold change was 0.838 fold.

And the fold change [25]?
Its fold change is 0.732 fold.

What about the fold change [26] of the same binder?
Its fold change is 1.11 fold.

From patent publication US20250313634A1 (WUXI BIOLOGICS SHANGHAI, published 2025)
